Assay results reported in US20100168002A1 (UNIVERSITY OF BRISTOL, published 2010).

Legend:
[1] = molecular target: T1, CEACAM1-Fc soluble receptor construct (human, UniProt P13688 35-320); assay: assay not named
T1 construct: also called CC1-Fc; human CEACAM1-Fc; not shown: Fc part, detected with goat anti-human Fc antibodies
T1 sequence: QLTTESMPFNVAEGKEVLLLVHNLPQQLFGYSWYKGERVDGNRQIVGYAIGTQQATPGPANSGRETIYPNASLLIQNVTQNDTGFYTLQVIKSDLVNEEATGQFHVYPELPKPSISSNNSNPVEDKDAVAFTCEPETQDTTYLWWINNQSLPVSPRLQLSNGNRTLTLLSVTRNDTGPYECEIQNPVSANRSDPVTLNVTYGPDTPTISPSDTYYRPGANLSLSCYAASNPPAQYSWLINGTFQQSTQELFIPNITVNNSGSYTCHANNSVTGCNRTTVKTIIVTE

CD33-Fc [2] = molecular target: T2, CD33-Fc (UniProt P20138 18-259); assay: dot blot overlay of whole bacteria with soluble receptor
T2 construct: Negative control construct; not shown: Fc part, detected with goat anti-human Fc antibodies
T2 sequence (P20138 18-259 limits assumed): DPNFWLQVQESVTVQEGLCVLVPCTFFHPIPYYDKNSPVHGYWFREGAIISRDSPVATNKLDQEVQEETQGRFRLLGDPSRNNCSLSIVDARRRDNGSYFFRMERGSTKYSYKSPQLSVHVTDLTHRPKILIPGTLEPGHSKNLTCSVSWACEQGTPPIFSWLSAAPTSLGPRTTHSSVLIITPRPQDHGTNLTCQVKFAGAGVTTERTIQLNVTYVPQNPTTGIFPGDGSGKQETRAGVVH

[3] = molecular target: T1, CEACAM1-Fc soluble receptor construct; assay: Western blot overlay with CEACAM1-Fc
CD33-Fc [4] = molecular target: T2, CD33-Fc; assay: blot overlay

B1: N-terminal recombinant MX2 peptide consisting of amino acids 1 to 449 (peptide)
chain: MNKIYKVKKNAAGHLVACSEFAKGHTKKAVLGSLLIVGILGMATTASAQKVGKATNKISGGDNNTANGTYLTIGGGDYNKTKGRYSTIGGGLFNEATNEYSTIGSGGYNKAKGRYSTIGGGGYNEATNQYSTIGGGDNNTAKGRYSTIGGGGYNEATIENSTVGGGGYNQAKGRNSTVAGGYNNEATGTDSTIAGGRKNQATGKGSFAAGIDNKANADNAVALGNKNTIEGENSVAIGSNNTVKKGQQNVFILGSNTDTTNAQNGSVLLGHNTAGKAATIVNSAEVGGLSLTGFAGASKTGNGTVSVGKKGKERQIVHVGAGEISDTSTDAVNGSQLHALATVVAQNKADIKDLDDEVGLLGEEINSLEGEIFNNQDAIAKNQADIKTLESNVEEGLLDLSGRLIDQKADIDNNINNIYELAQQQDQHSSDIKTLKNNVEEGLLDLSGR
B1: no binding [1].

B2: UspA1 protein of Moraxella catarrhalis strain MX2 (ATCC 25238) (ligand)
chain: QKVGKATNKISGGDNNTANGTYLTIGGGDYNKTKGRYSTIGGGLFNEATNEYSTIGSGGYNKAKGRYSTIGGGGYNEATNQYSTIGGGDNNTAKGRYSTIGGGGYNEATIENSTVGGGGYNQAKGRNSTVAGGYNNEATGTDSTIAGGRKNQATGKGSFAAGIDNKANADNAVALGNKNTIEGENSVAIGSNNTVKKGQQNVFILGSNTDTTNAQNGSVLLGHNTAGKAATIVNSAEVGGLSLTGFAGASKTGNGTVSVGKKGKERQIVHVGAGEISDTSTDAVNGSQLHALATVVAQNKADIKDLDDEVGLLGEEINSLEGEIFNNQDAIAKNQADIKTLESNVEEGLLDLSGRLIDQKADIDNNINNIYELAQQQDQHSSDIKTLKNNVEEGLLDLSGRLIDQKADLTKDIKALESNVEEGLLDLSGRLIDQKADIAKNQADIAQNQTDIQDLAAYNELQDAYAKQQTEAIDALNKASSANTDRIATAELGIAENKKDAQIAKAQANENKDGIAKNQADIQLHDKKITNLGILHSMVARAVGNNTQGVATNKADIAKNQADIANNIKNIYELAQQQDQHSSDIKTLAKVSAANTDRIAKNKAEADASFETLTKNQNTLIEQGEALVEQNKAINQELEGFAAHADVQDKQILQNQADITTNKTAIEQNINRTVANGFEIEKNKAGIATNKQELILQNDRLNRINETNNHQDQKIDQLGYALKEQGQHFNNRISAVERQTAGGIANAIAIATLPSPSRAGEHHVLFGSGYHNGQAAVSLGAAGLSDTGKSTYKIGLSWSDAGGLSGGVGGSYRWK
notes: Tested on whole bacteria or in whole cell lysates; migrates at >200 kDa unheated and at circa 92 kDa after boiling; also called MX2 UspA1
B2: no binding (tested: 1-2 µg ml^-1) (CD33-Fc [2]).

B3: peptide D-8 with deletion of the region 571-632 (D-8Δ) (peptide)
chain: ASSANTDRIATAELGIAENKKDAQIAKAQANENKDGIAKNQADIIKTLAKVSAANTDRIAKNKAEADASFETLTKNQNTLIEQGEALVEQNKAINQELEGFAAHADVQDKQILQNQADITTNKTAIEQNINRTVANGFEIEKNKAGIATNKQELILQNDRLNRINETNNHQDQKIDQLGYALKEQGQHFNNRISAVERQTAGGIANAIAIATLPSPSRAGEHHVLFGSGYHNGQAAVSLGAAGLSDTGKSTYKIGLSWSDAGGLSGGVGGSYRWK
notes: Outer limits as deduced for D-8 (527-863); the deletion 571-632 is printed; also called control peptide; not shown: His tag from the pQE30 vector
B3: no binding [1].

B4: recombinant UspA1 fragment 6-8 (residues E659-K863 of UspA1 of MX2) (peptide)
chain: ETLTKNQNTLIEQGEALVEQNKAINQELEGFAAHADVQDKQILQNQADITTNKTAIEQNINRTVANGFEIEKNKAGIATNKQELILQNDRLNRINETNNHQDQKIDQLGYALKEQGQHFNNRISAVERQTAGGIANAIAIATLPSPSRAGEHHVLFGSGYHNGQAAVSLGAAGLSDTGKSTYKIGLSWSDAGGLSGGVGGSYRWK
notes: also called P6-P8; not shown: His tag from the pQE30 vector
B4: no binding [3].

B5: recombinant UspA1 fragment D-8 (peptide)
chain: ASSANTDRIATAELGIAENKKDAQIAKAQANENKDGIAKNQADIQLHDKKITNLGILHSMVARAVGNNTQGVATNKADIAKNQADIANNIKNIYELAQQQDQHSSDIKTLAKVSAANTDRIAKNKAEADASFETLTKNQNTLIEQGEALVEQNKAINQELEGFAAHADVQDKQILQNQADITTNKTAIEQNINRTVANGFEIEKNKAGIATNKQELILQNDRLNRINETNNHQDQKIDQLGYALKEQGQHFNNRISAVERQTAGGIANAIAIATLPSPSRAGEHHVLFGSGYHNGQAAVSLGAAGLSDTGKSTYKIGLSWSDAGGLSGGVGGSYRWK
notes: Limits deduced: D = 527 (see D-7), 8 = 863 (from 6-8, E659-K863); also called D-8 polypeptide; not shown: His tag from the pQE30 vector
B5: no binding (CD33-Fc [4]).
